Experimental findings from patent publication US20140227179A1 (published 2014) are described below.

For orientation: EC50 means the concentration that produces a half-maximal response. A higher EC50 goes with a less potent agent.

In the experiment the target is T1, MUC5ac mucin (PAM4 antigen) from CaPan1 human pancreatic carcinoma (human, UniProt P98088 28-5654, limits assumed, heavily glycosylated native mucin).
T1 construct: The antigen was never used as a pure recombinant protein; also called CaPan1 Ag; CaPan1 antigens
Put plainly: ELISA on target mucin antigen (FIG. 9). On the technique in general: In an ELISA, binding on a coated surface is turned into a signal by an enzyme label.

B1: PAM4-F(ab′)2 (other)
chain 1: EVQLQESGPELVKPGASVKMSCKASGYTFPSYVLHWVKQKPGQGLEWIGYINPYNDGTQYNEKFKGKATLTSDKSSSTAYMELSRLTSEDSAVYYCARGFGGSYGFAYWGQGTLITVSA
chain 2: DIVMTQSPAIMSASPGEKVTMTCSASSSVSSSYLYWYQQKPGSSPKLWIYSTSNLASGVPARFSGSGSGTSYSLTISSMEAEDAASYFCHQWNRYPYTFGGGTKLEIK
B1 gave an EC50 of 1.83 nM.
